Experimental data taken from publication PMC6650940, “Investigations of Accessibility of T2/T3 Copper Center of Two-Domain Laccase from Streptomyces griseoflavus Ac-993” (International Journal of Molecular Sciences, 2019).
Positions count from the first letter of the chain named. In names and notes the source's numbering stands.

B1: SgfSL wt (two-domain laccase, Streptomyces griseoflavus Small Laccase) (Streptomyces griseoflavus; I170A) (protein)
chain: AGAAPAGGEVRRVTMYAERLAGGQMGYGLEKGKASIPGPLIELNEGDTLHVEFENTMDVPVSLHVHGLDYEISSDGTKQNKSHVEPGGTRTYTWRTHEPGRRADGTWRAGSAGYWHYHDHVVGTEHGTGGARNGLYGPVIVRRKGDVLPDATHTIVFNDMTINNRPAHTGPNFEATVGDRVEIVMITHGEYYHTFHMHGHRWADNRTGMLTGPDDPSQVIDNKICGPADSFGFQIIAGEGVGAGAWMYHCHVQSHSDMGMVGLFLVKKPDGTIPGYDPQEHAH
notes: Ni-NTA purified from E. coli (pQE-30); I170A and I170F from pET32-Xa/LIC with thioredoxin tag cut by factor Xa (forward primer encodes AGAAPAGG...); homotrimer
B2: SgfSL wt (two-domain laccase, Streptomyces griseoflavus Small Laccase) (Streptomyces griseoflavus) (protein)
chain: B1 chain with A131I
notes: as for B1
B3: SgfSL wt (two-domain laccase, Streptomyces griseoflavus Small Laccase) (Streptomyces griseoflavus; I170F) (protein)
chain: B1 chain with A131F
notes: as for B1

Legend:
purified protein [1] = substrate: CCn1c(=NN=c2sc3cc(S(=O)(=O)O)ccc3n2CC)sc2cc(S(=O)(=O)O)ccc21; experiment: purified protein; type: biochemical, Streptomyces griseoflavus; conditions: pH 4.0, 30 °C, Britton-Robinson buffer, 1 mM CuSO4 growth medium
purified protein [2] = substrate: COc1cccc(OC)c1O; experiment: purified protein; type: biochemical, Streptomyces griseoflavus; conditions: pH 9.0, 30 °C, Britton-Robinson buffer, 1 mM CuSO4 growth medium

Protein | Km (purified protein [1]) | kcat (purified protein [1]) | kcat/Km (purified protein [1]) | Km (purified protein [2]) | kcat (purified protein [2]) | kcat/Km (purified protein [2])
B1 | 630 ± 110 µM | 0.7 ± 0.2 s⁻¹ | 1110 M⁻¹ s⁻¹ | – | – | –
B2 | – | – | – | 5200 ± 110 µM | 0.8 ± 0.09 s⁻¹ | 150 M⁻¹ s⁻¹
B3 | 200 ± 40 µM | 0.08 ± 0.01 s⁻¹ | 400 M⁻¹ s⁻¹ | – | – | –
